Test results: patent publication US20230002480A1

Columns and labels:
Experiment in all cases: cell-based or functional assay
[1] = target: HIV-1 Env of pseudovirus Q259.d2.17 (HIV-1)
[2] = target: HIV-1 Env of pseudovirus R1166.c01 (HIV-1)
[3] = target: HIV-1 Env of pseudovirus Q23.17 (HIV-1)
[4] = target: HIV-1 Env of pseudovirus C3347.c11 (HIV-1)
[5] = target: HIV-1 Env of pseudovirus REJO4541.67 (HIV-1)
[6] = target: HIV-1 Env of pseudovirus HIV-0013095-2.11 (HIV-1)
[7] = target: HIV-1 Env of pseudovirus 3415.v1.c1 (HIV-1)

For PGT151 (antibody), which IC50 [1] is on record?
The IC50 was over 50 µg/mL.

And the IC80 [1]?
Its IC80 is over 50 µg/mL.

And the IC50, titer in TZM.bl cells [2]?
Its IC50, titer in TZM.bl cells is over 50 µg/mL.

And the IC80, titer in TZM.bl cells [2]?
The IC80, titer in TZM.bl cells was over 50 µg/mL.

What about the IC50 [3] of the same substance?
The IC50 was 0.007 µg/mL.

What about the IC80 [3] of the same substance?
The IC80 was 0.045 µg/mL.

And the IC50, titer in TZM.bl cells [4]?
The IC50, titer in TZM.bl cells was over 50 µg/mL.

And the IC80, titer in TZM.bl cells [4]?
Its IC80, titer in TZM.bl cells is over 50 µg/mL.

And the IC50 [5]?
The IC50 was 0.018 µg/mL.

And the IC80 [5]?
Its IC80 is 0.119 µg/mL.

What about the IC50 [6] of the same substance?
Its IC50 is over 50 µg/mL.

What about the IC80 [6] of the same substance?
Its IC80 is over 50 µg/mL.

With 8ANC195 (antibody) as the substance, how does the neutralization IC50 [1] read?
Its neutralization IC50 is over 50 µg/mL.

What about the neutralization IC80 [1] of the same substance?
The neutralization IC80 was over 50 µg/mL.

What about the IC50, titer in TZM.bl cells [2] of the same substance?
Its IC50, titer in TZM.bl cells is 4.83 µg/mL.

And the IC80, titer in TZM.bl cells [2]?
Its IC80, titer in TZM.bl cells is 4.83 µg/mL.

And the neutralization IC50 [3]?
Its neutralization IC50 is 2.55 µg/mL.

And the neutralization IC80 [3]?
Its neutralization IC80 is 2.55 µg/mL.

And the IC50, titer in TZM.bl cells [4]?
The IC50, titer in TZM.bl cells was over 50 µg/mL.

And the IC80, titer in TZM.bl cells [4]?
Its IC80, titer in TZM.bl cells is over 50 µg/mL.

What about the neutralization IC50 [5] of the same substance?
Its neutralization IC50 is 0.08 µg/mL.

And the neutralization IC80 [5]?
The neutralization IC80 was 0.68 µg/mL.

What about the neutralization IC50 [6] of the same substance?
Its neutralization IC50 is 0.32 µg/mL.

And the neutralization IC80 [6]?
The neutralization IC80 was 1.85 µg/mL.

With N49P6 (antibody) as the substance, how does the IC50 [1] read?
The IC50 was 24.4 µg/mL.

And the IC80 [1]?
The IC80 was over 50 µg/mL.

What about the MPI [1] of the same substance?
Its MPI is 75.

And the IC50 [2]?
Its IC50 is 0.102 µg/mL.

And the IC80 [2]?
The IC80 was 0.344 µg/mL.

What about the MPI [2] of the same substance?
The MPI was 100.

And the IC50 [3]?
Its IC50 is 0.052 µg/mL.

And the IC80 [3]?
The IC80 was 0.185 µg/mL.

And the MPI [3]?
The MPI was 100.

What about the IC50 [4] of the same substance?
The IC50 was 0.08 µg/mL.

And the IC80 [4]?
Its IC80 is 0.266 µg/mL.

And the MPI [4]?
The MPI was 100.

What about the IC50 [5] of the same substance?
Its IC50 is 0.066 µg/mL.

And the IC80 [5]?
The IC80 was 0.215 µg/mL.

What about the MPI [5] of the same substance?
The MPI was 100.

And the IC50 [7]?
The IC50 was 0.188 µg/mL.

And the IC80 [7]?
The IC80 was 0.648 µg/mL.

And the MPI [7]?
Its MPI is 100.

And the IC50 [6]?
Its IC50 is 0.971 µg/mL.

What about the IC80 [6] of the same substance?
Its IC80 is 8.04 µg/mL.

And the MPI [6]?
The MPI was 96.

How did the IC50, titer in TZM.bl cells [1] turn out when VRC01 (antibody) was run?
The IC50, titer in TZM.bl cells was 0.17 µg/mL.

And the IC80, titer in TZM.bl cells [1]?
Its IC80, titer in TZM.bl cells is 0.54 µg/mL.

And the IC50, titer in TZM.bl cells [2]?
Its IC50, titer in TZM.bl cells is 1.7 µg/mL.

What about the IC80, titer in TZM.bl cells [2] of the same substance?
Its IC80, titer in TZM.bl cells is 4.58 µg/mL.

And the IC50, titer in TZM.bl cells [3]?
The IC50, titer in TZM.bl cells was 0.09 µg/mL.

And the IC80, titer in TZM.bl cells [3]?
Its IC80, titer in TZM.bl cells is 0.261 µg/mL.

And the IC50, titer in TZM.bl cells [4]?
The IC50, titer in TZM.bl cells was 0.17 µg/mL.

What about the IC80, titer in TZM.bl cells [4] of the same substance?
The IC80, titer in TZM.bl cells was 0.58 µg/mL.

What about the IC50, titer in TZM.bl cells [5] of the same substance?
Its IC50, titer in TZM.bl cells is 0.06 µg/mL.

And the IC80, titer in TZM.bl cells [5]?
Its IC80, titer in TZM.bl cells is 0.25 µg/mL.

What about the IC50, titer in TZM.bl cells [7] of the same substance?
The IC50, titer in TZM.bl cells was 0.06 µg/mL.

What about the IC80, titer in TZM.bl cells [7] of the same substance?
Its IC80, titer in TZM.bl cells is 0.15 µg/mL.

What about the IC50, titer in TZM.bl cells [6] of the same substance?
The IC50, titer in TZM.bl cells was 0.11 µg/mL.

What about the IC80, titer in TZM.bl cells [6] of the same substance?
The IC80, titer in TZM.bl cells was 0.33 µg/mL.

What does the source list for PGDM1400 (antibody)?
IC50 [1]: 0.166 µg/mL; IC80 [1]: > 50 µg/mL; IC50, titer in TZM.bl cells [2]: 1.43 µg/mL; IC80, titer in TZM.bl cells [2]: 6.92 µg/mL; IC50 [3]: < 0.001 µg/mL; IC80 [3]: 0.003 µg/mL; IC50, titer in TZM.bl cells [4]: 0.011 µg/mL; IC80, titer in TZM.bl cells [4]: 0.051 µg/mL; IC50 [5]: 0.028 µg/mL; IC80 [5]: 0.992 µg/mL; IC50 [6]: 0.003 µg/mL; IC80 [6]: 0.012 µg/mL

How did the neutralization IC50 [1] turn out when VRC07 (antibody) was run?
The neutralization IC50 was 0.024 µg/mL.

And the neutralization IC80 [1]?
Its neutralization IC80 is 0.1 µg/mL.

And the IC50, titer in TZM.bl cells [2]?
The IC50, titer in TZM.bl cells was 0.81 µg/mL.

What about the IC80, titer in TZM.bl cells [2] of the same substance?
Its IC80, titer in TZM.bl cells is 3.17 µg/mL.

And the neutralization IC50 [3]?
The neutralization IC50 was 0.081 µg/mL.

And the neutralization IC80 [3]?
Its neutralization IC80 is 0.236 µg/mL.

What about the IC50, titer in TZM.bl cells [4] of the same substance?
Its IC50, titer in TZM.bl cells is 0.06 µg/mL.

And the IC80, titer in TZM.bl cells [4]?
Its IC80, titer in TZM.bl cells is 0.38 µg/mL.

What about the neutralization IC50 [5] of the same substance?
The neutralization IC50 was 0.011 µg/mL.

And the neutralization IC80 [5]?
Its neutralization IC80 is 0.037 µg/mL.

What about the neutralization IC50 [7] of the same substance?
Its neutralization IC50 is 0.036 µg/mL.

What about the neutralization IC80 [7] of the same substance?
Its neutralization IC80 is 0.152 µg/mL.

What about the neutralization IC50 [6] of the same substance?
The neutralization IC50 was 0.017 µg/mL.

And the neutralization IC80 [6]?
Its neutralization IC80 is 0.057 µg/mL.

Which results are given for PGT128 (antibody)?
IC50 [1]: > 50 µg/mL; IC80 [1]: > 50 µg/mL; IC50, titer in TZM.bl cells [2]: > 50 µg/mL; IC80, titer in TZM.bl cells [2]: > 50 µg/mL; IC50 [3]: 0.009 µg/mL; IC80 [3]: 0.024 µg/mL; IC50, titer in TZM.bl cells [4]: 0.001 µg/mL; IC80, titer in TZM.bl cells [4]: 0.007 µg/mL; IC50 [5]: > 50 µg/mL; IC80 [5]: > 50 µg/mL; IC50 [6]: > 50 µg/mL; IC80 [6]: > 50 µg/mL

For PGT145 (antibody), which IC50 [1] is on record?
The IC50 was 44.2 µg/mL.

What about the IC80 [1] of the same substance?
Its IC80 is over 50 µg/mL.

What about the IC50, titer in TZM.bl cells [2] of the same substance?
Its IC50, titer in TZM.bl cells is 2.27 µg/mL.

And the IC80, titer in TZM.bl cells [2]?
Its IC80, titer in TZM.bl cells is 17.9 µg/mL.

What about the IC50 [3] of the same substance?
Its IC50 is 1.32 µg/mL.

And the IC80 [3]?
The IC80 was over 50 µg/mL.

And the IC50, titer in TZM.bl cells [4]?
The IC50, titer in TZM.bl cells was 0.005 µg/mL.

What about the IC80, titer in TZM.bl cells [4] of the same substance?
The IC80, titer in TZM.bl cells was 0.044 µg/mL.

What about the IC50 [5] of the same substance?
Its IC50 is under 0.001 µg/mL.

And the IC80 [5]?
Its IC80 is 0.001 µg/mL.

And the IC50 [6]?
The IC50 was 9.27 µg/mL.

And the IC80 [6]?
The IC80 was over 50 µg/mL.

Which IC50 [1] does the source give for PGT121 (antibody) here?
The IC50 was 15.4 µg/mL.

And the IC80 [1]?
The IC80 was over 50 µg/mL.

What about the IC50 [2] of the same substance?
Its IC50 is over 50 µg/mL.

And the IC80 [2]?
The IC80 was over 50 µg/mL.

What about the IC50 [3] of the same substance?
Its IC50 is under 0.001 µg/mL.

What about the IC80 [3] of the same substance?
The IC80 was 0.005 µg/mL.

What about the IC50 [4] of the same substance?
Its IC50 is over 50 µg/mL.

And the IC80 [4]?
The IC80 was over 50 µg/mL.

What about the IC50 [5] of the same substance?
Its IC50 is 4.77 µg/mL.

What about the IC80 [5] of the same substance?
Its IC80 is over 50 µg/mL.

And the IC50 [6]?
Its IC50 is over 50 µg/mL.

And the IC80 [6]?
The IC80 was over 50 µg/mL.
